The target of the assay is EEEV virus-like particles (VLPs: C, E2, and E1) (Eastern equine encephalitis virus) (UniProt Q4QXJ7). Put plainly: ELISA.

Consider “LA3-LA3-LA3-LA3-LA3-Fc [LA3(5)-Fc] (from UniProt P01130) (Fc fusion)”, for which the fold increase in binding avidity was determined as 100 fold.

(Values after article PMC10764363.)
